Experimental data taken from patent US20190010249A1 (Ablynx, published 2019).

Key:
[1] = target: T1, human multimeric vWF (purified vWF HaemateP) (human, UniProt P04275 764-2813); experiment: Gyrolab solution affinity, 5 pM caplacizumab pre-incubated with vWF dilution series; liquid formulation
T1 construct: vWF purified from HaemateP by size-exclusion chromatography; also called multimeric target vWF; purified HaemateP
Description: (§1) This assay measures the inhibition of ristocetin-induced binding of von Willebrand Factor (vWF) to bound platelet by caplacizumab. [0395] c) The RICO assay is used as pharmacodynamics marker for the pharmacological activity of caplacizumab. The assay measures the rate and degree to which human lyophilized platelets form aggregates after the addition of the antibiotic ristocetin, which mimics shear-induced activation of vWF. [0396] d) Gyrolab-based assay analyses the kinetic interactions of caplacizumab with its multimeric target vWF and determines the affinity constant of caplacizumab to human multimeric vWF. Briefly, affinity determination on the Gyroloab platform was established as follows: Gyrolab Bioaffy 1000 CDs were used. As capture tool, 3000 nM in-house biotinylated purified vWF (purified HaemateP using size-exclusion chromatography) was applied on the columns which were pre-packed with streptavidin-coated beads. Filter-sterilized D-PBS containing 0.01% Tween-20 was used for dilution of the capture tool. […] Free caplacizumab was detected with 50 nM AlexaFluor647-labeled anti-caplacizumab monoclonal antibody diluted in Rexxip F buffer (commercially available detection buffer). […]

[2] = target: T1, human multimeric vWF (purified vWF …); experiment: Gyrolab solution affinity, 5 pM caplacizumab pre-incubated with vWF dilution series; lyophilized formulation
Description: as §1

- Kd [1]: 6.84 pM
- Kd [2]: 4.46 pM
B1: 12A02H1-3a-12A02H1 (ALX-0081) (VHH)
chain: EVQLVESGGGLVQPGGSLRLSCAASGRTFSYNPMGWFRQAPGKGRELVAAISRTGGSTYYPDSVEGRFTISRDNAKRMVYLQMNSLRAEDTAVYYCAAAGVRAEDGRVRTLPSEYTFWGQGTQVTVSSAAAEVQLVESGGGLVQPGGSLRLSCAASGRTFSYNPMGWFRQAPGKGRELVAAISRTGGSTYYPDSVEGRFTISRDNAKRMVYLQMNSLRAEDTAVYYCAAAGVRAEDGRVRTLPSEYTFWGQGTQVTVSS
notes: Bivalent Nanobody: a single chain of two 12A02H1 domains joined by an AAA linker; It was tested as samples from different formulations and storage conditions; also called caplacizumab; anti-vWF Nanobody caplacizumab
